Measurements: the nanobody polyreactivity screen of Harvey et al. (2022)

experiment: yeast display, Sf9 membrane polyspecificity reagent, FACS + sequencing; frameworks hold sequencing errors
Method in brief: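 In a synthetic yeast display library (Saccharomyces cerevisiae BJ5465), nanobody expression was induced with galactose for 36–48 hours. FACS gates were set low and high (top ~1%) using anti-HA fluorescence for expression and streptavidin fluorescence for binding of the Sf9 membrane reagent. Each polyreactivity label is drawn from the gate of origin.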

Sequence	polyreactivity (PSR sort gate)
QVQLVESGGGLVQAGGSLRLSCAASGSTFRYYDRGWYRQAPGKERELVAAITTSGDDTYYADSVKRRFTISRDNAKTTVYLQMNSLKPEDTAVYYCAADGYGGHKYELESWGQGTQVTVSS	low polyreactivity
QVQLVESGGGLVQAGGSLRLSCAASGSTFRYYGMGWYRQAPGKERELVAAISNGDSTNYADSVKGRFTISRDNAKNTVYLQMNSLKPEDTAVYYCATERYSYRVYGGITTFEYWGQGSQVTVSS	high polyreactivity
QVQLVESGGGLVQAGGSLRLSCAASGSTFRYYTMGWYRQAAGQERELVAAITSGGGSTYYADSVKGRFTISRDNAKNTVYLQMNSLKPEDTAVYYCAARTRGTADNYWGQGTQGTVSS	high polyreactivity
QVQLVESGGGLVQAGGSLRLSCAASGSTFRYYTMGWYRQAPGKERELVAAISGSGGITYYADSVKGRFTMSRDNAKNNVYLQMNSLKPEDTAVYYCNAGVFYRDDYWGQGTQVTVSS	high polyreactivity
QVQLVESGGGLVQAGGSLRLSCAASGSTFRYYVMGWYRQAPGKERELVAAISAGGGRTYYADSVKGRFTISRDNSKNTVYLQMNSLKPEDTAVYYCAAKSVTPYWQEYEYDYWGQGTQVTVSS	high polyreactivity
QVQLVESGGGLVQAGGSLRLSCAASGSTFSANDMGWYRQAPGKEREFDAAITTSDDSTYYADSVKGRFTISRDNAKNTVYLQMNSVKPEDTAVYYCNAYSGYSFFGLGFFYKYDYWGQGTQVTVSS	low polyreactivity
QVQLVESGGGLVQAGGSLRLSCAASGSTFSAYDMGWYRQAPGKERELVAAIDTGGTTYYADSVKGRFTISRDTAKNTVYVQMNSLKPEDTAVYYCIATIWYRDYGYWGQGTQVTVSS	low polyreactivity
QVQLVESGGGLVQAGGSLRLSCAASGSTFSDNARGWYRQAPGKERELVAAIKETGGSTYYADSVKGRCTISRDNAKNTVYLQMNSLKPEDTAVYYCNADIDPYGATYAIEYDYWGQGTQVTVSS	low polyreactivity
QVQLVESGGGLVQAGGSLRLSCAASGSTFSDYAMGWYRQAPGKERELVADISSDGSTYYADSVKGRFTISRDNAKNTVYLQMNSLKPEDTAVYYCNAGYPDYDWTWWHISYDYWGQGTQVTVSS	low polyreactivity
QVQLVESGGGLVQAGGSLRLSCAASGSTFSENAMGWYRQAPGKERELVADITNGGSTNYADSVKGRFTISRDNAKNTVYLQMNSLKPEDTAVYYCATDSYPGLNPDFDYWGQGTQVTVSS	low polyreactivity
QVQLVESGGGLVQAGGSLRLSCAASGSTFSEYVMGWYRQAPGKERELVAVITTGTSTNYADSVKGRFTISRDNAKNTVYLQMNSLKPEDTAVYYCNAEYLYGVRYHDYWNDFDYWGQGTQVTVSS	low polyreactivity
QVQLVESGGGLVQAGGSLRLSCAASGSTFSFNDRGWYRQAPGKERELVADISCSGDTTYADSVKGRFTISRDNAKNTVYLQMKSLKPEATAVYYCAARQYFRNYVYWGQGTQVTVSS	high polyreactivity
QVQLVESGGGLVQAGGSLRLSCAASGSTFSFYAMGWYRQAPGKERELVAAISSRGGSTYYADSVKGRFTISRDNAKNTVYLQMNSLKPEDTAVYYCAVRRYPHFYHRGGFNFNGYDYWGQGTQVTVSS	high polyreactivity
QVQLVESGGGLVQAGGSLRLSCAASGSTFSGNAMGWYRQAPGKERELVASITDGGNTYYADSVKGRFTISRDNAKNTVYLQMNSLKPEDTAVYYCAAEILWGGYDYWGQGTQVTVSS	low polyreactivity
QVQLVESGGGLVQAGGSLRLSCAASGSTFSGNAMGWYRQAPGKEWELGATITITGGSTYYADSVKGRFTISRDNAKNTVYLQMNSLKPEDTAVYYCAKDYYAYSDYDYWGQGTQVTVSS	low polyreactivity
QVQLVESGGGLVQAGGSLRLSCAASGSTFSGYAKGWYRQAPGKERELVAAINWNGGRTYYADSVKGRFTISRDNAKNTVYLQMNSLKPEDTAVYYCNKQSPRGRSAVYKYDYWGQGTQVTVSS	high polyreactivity
QVQLVESGGGLVQAGGSLRLSCAASGSTFSGYAMGWDRQAPGNERELVAAITSGGITNYADSVKGRFSLSRDNAKNTVYLQMNSLKPEDTAVYYCAKSVSGIGVGYDYWGQGTQVTVSS	low polyreactivity
